Measurements reported in publication PMC10197177.

System: BG4 (anti-G-quadruplex antibody)
Experiment: sandwich ELISA
Conditions: K1 pre-bound to immobilized wild-type spike, ELONA: 20 mM Tris, 5 mM KCl, 2 mM MgCl2, 0.5 mM CaCl2, pH 7.4, room temperature, BG4 sandwich ELISA: Methods give 20 mM Tris, 5 mM MgCl2 …

## AATGGATCCACATCTACGAGCTCGAACGCCCGGAGGAGACGGGGGCAGGGCGTGTTCACTGCAGACTTGACGAAGCT [K1 (truncated working aptamer)]
  Kd: 1.77 nM
